Literature values as cited in publication doi:10.1101/2023.01.13.523947.
pKd: −log10 of the molar value.

System: 35I9 anti-DNA mAb (Mus musculus (NZWxNZB F1))

Substance	pKd
dsDNA (cited Kd)	7.05
ssDNA (cited Kd)	6.15
